Laboratory results taken from patent US20040028672.

Test system: LL-37

With Pseudomonas aeruginosa elastase as the substance, how does the “degradation of LL-37 (SDS-PAGE) and loss of bactericidal activity against E. faecalis” value read?
The value was “LL-37 is degraded and inactivated by P. aeruginosa elastase”.
